# Assay results as given in IntAct's records for PubMed 25220469.
# B1: Small G protein signaling modulator 1 (Mus musculus), Q8BPQ7-1 (parent)
# chain: MASVPAEAETRQRLLRTVKKEVKQIMEEAVTRKFVHEDSSHIISFCAAVEACVLHGLRRRAAGFLRSNKIAALFMKVGKGFPPAEELSRKVQELEQLIESARNQIQGLQENVRKLPKLPNLSPLAIKHLWIRTALFGRVLDKIVHYLVENSSKYYEKEALLMDPVDGPILASLLVGPCALEYTKMKTADHFWTDPSADELVQRHRIHSSHLRQDSPTKRPALCIQKRHSSGSMDDRPSISARDYVESLHQDSRATLLYGKNNVLVQPRDDMEAVPGYLSLHQTADVMTLKWTPNQLMNGSVGDLDYEKSVYWDYAVTIRLEEIVYLHCHQQVDSGGTVVLVSQDGIQRPPFRFPKGGHLLQFLSCLENGLLPHGQLDPPLWSQRGKGKVFPKLRKRSPQGSSESTSSDKEDDEATDYVFRIIYPGTQSEFVPQDLMDVSMNNLPPLWQPSPRKSSCSSCSQSGSADGGSTNGCNHERAPLKLLCDNMKYQILSRAFYGWLAYCRHLSTVRTHLSALVNHMIVSPDLPCDAGQGLTASIWEKYIQDSTTYPEQELLRLIYYGGVQPEIRRAVWPFLLGHYQFGMTEMERKEVDEQIHACYAQTMSEWLGCEAIVRQRERESHAAALAKCSSGASLDSHLHRMLHRDSTISNESSQSCSSGRQNLRLQSDSSSSTQVFESVDEVEQTEAEGRSEEKHPKIPNGNPANGTCSPDSGHPSSHNFSSGLSEHSEPSLSTEDSVLDAQRSLPAVFRPGDSSVEDGQSSEATTSRDEAPREELAVQDSLESDLLANESLEEFMSIPGSLDVALPEKDGAVMDGWPGEADKPSRADSEDNLSEEPEMESLFPALASLAVTSSANNEASPVSSSGVTYSPELLDLYTVNLHRIEKDVQRCDRSYWYFTAANLEKLRNIMCSYIWQHIEIGYVQGMCDLLAPLLVILDDEALAFSCFTELMKRMNQNFPHGGAMDTHFANMRSLIQILDSELFELMHQNGDYTHFYFCYRWFLLDFKRELVYDDVFSVWETIWAAKHVSSAHYVLFIALALVEVYRDIILENNMDFTDIIKFFNEMAERHNAKQILQLARDLVHKVQILIENK
# partner: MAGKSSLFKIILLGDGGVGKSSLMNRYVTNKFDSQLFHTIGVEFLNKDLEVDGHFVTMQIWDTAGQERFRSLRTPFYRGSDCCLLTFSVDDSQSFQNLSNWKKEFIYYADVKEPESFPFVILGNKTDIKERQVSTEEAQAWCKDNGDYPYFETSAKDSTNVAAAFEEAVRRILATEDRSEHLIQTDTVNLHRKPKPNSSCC
# B2: Ras-related protein Rab-9A (Mus musculus), Q9R0M6 (parent)
# chain: B1 partner
# partner: B1 chain
# Variants of: B1
# Conditions: with rab9a_mouse Rab9a
row,effect of a mutation on the interaction,Variant
1,disrupting interaction strength,M297A
2,disrupting interaction strength,Y277A
3,disrupting interaction strength,K260A
4,disrupting interaction strength,N261A
5,disrupting interaction strength,N294A
6,disrupting interaction strength,L256A

# Variants of: B1
# Conditions: with rab9a_mouse Rab9a
# Remark: another data set of the same source
row,effect of a mutation on the interaction,Variant
1,decreasing interaction strength,M297A
2,decreasing interaction strength,K260A
3,decreasing interaction strength,L256A

# Variants of: B2
# Conditions: with Sgsm1, Q8BPQ7-1
row,effect of a mutation on the interaction,Variant
1,decreasing interaction strength,MAGKSSLFKIILLGDGGVGKSSLMNRYVTNKFDSQLFHTIGVEFLNKDLEVDGHFVTMQIADTAGQERFRSLRTPFYRGSDCCLLTFSVDDSQSFQNLSNWKKEFIYYADVKEPESFPFVILGNKTDIKERQVSTEEAQAWCKDNGDYPYFETSAKDSTNVAAAFEEAVRRILATEDRSEHLIQTDTVNLHRKPKPNSSCC [W61A]
2,decreasing interaction strength,MAGKSSLFKIILLGDGGVGKSSLMNRYVTNKFDSQLFHTAGVEFLNKDLEVDGHFVTMQIWDTAGQERFRSLRTPFYRGSDCCLLTFSVDDSQSFQNLSNWKKEFIYYADVKEPESFPFVILGNKTDIKERQVSTEEAQAWCKDNGDYPYFETSAKDSTNVAAAFEEAVRRILATEDRSEHLIQTDTVNLHRKPKPNSSCC [I40A]
3,decreasing interaction strength,MAGKSSLFKIILLGDGGVGKSSLMNRYVTNKFDSQLFHTIGVAFLNKDLEVDGHFVTMQIWDTAGQERFRSLRTPFYRGSDCCLLTFSVDDSQSFQNLSNWKKEFIYYADVKEPESFPFVILGNKTDIKERQVSTEEAQAWCKDNGDYPYFETSAKDSTNVAAAFEEAVRRILATEDRSEHLIQTDTVNLHRKPKPNSSCC [E43A]
4,disrupting interaction strength,MAGKSSLFKIILLGDGGVGKSSLMNRYVTNKFDSQLFHTIAVEFLNKDLEVDGHFVTMQIWDTAGQERFRSLRTPFYRGSDCCLLTFSVDDSQSFQNLSNWKKEFIYYADVKEPESFPFVILGNKTDIKERQVSTEEAQAWCKDNGDYPYFETSAKDSTNVAAAFEEAVRRILATEDRSEHLIQTDTVNLHRKPKPNSSCC [G41A]
5,disrupting interaction strength,MAGKSSLFKIILLGDGGVGKSSLMNRYVTNKFDSQLFHTIDVEFLNKDLEVDGHFVTMQIWDTAGQERFRSLRTPFYRGSDCCLLTFSVDDSQSFQNLSNWKKEFIYYADVKEPESFPFVILGNKTDIKERQVSTEEAQAWCKDNGDYPYFETSAKDSTNVAAAFEEAVRRILATEDRSEHLIQTDTVNLHRKPKPNSSCC [G41D]
6,decreasing interaction strength,MAGKSSLFKIILLGDGGVGKSSLMNRYVTNKFDSQLFHTIGVEALNKDLEVDGHFVTMQIWDTAGQERFRSLRTPFYRGSDCCLLTFSVDDSQSFQNLSNWKKEFIYYADVKEPESFPFVILGNKTDIKERQVSTEEAQAWCKDNGDYPYFETSAKDSTNVAAAFEEAVRRILATEDRSEHLIQTDTVNLHRKPKPNSSCC [F44A]
7,decreasing interaction strength,MAGKSSLFKIILLGDGGVGKSSLMNRYVTNKFDSQLFHTIGAEFLNKDLEVDGHFVTMQIWDTAGQERFRSLRTPFYRGSDCCLLTFSVDDSQSFQNLSNWKKEFIYYADVKEPESFPFVILGNKTDIKERQVSTEEAQAWCKDNGDYPYFETSAKDSTNVAAAFEEAVRRILATEDRSEHLIQTDTVNLHRKPKPNSSCC [V42A]
8,decreasing interaction strength,MAGKSSLFKIILLGDGGVGKSSLMNRYVTNKFDSQLFHTIGVEFLNKDLEVDGHFVTMQIWDTAGQERFRSLRTPAYRGSDCCLLTFSVDDSQSFQNLSNWKKEFIYYADVKEPESFPFVILGNKTDIKERQVSTEEAQAWCKDNGDYPYFETSAKDSTNVAAAFEEAVRRILATEDRSEHLIQTDTVNLHRKPKPNSSCC [F76A]

# Variants of: B2
# Conditions: with Sgsm1, Q8BPQ7-1
# Remark: another data set of the same source
row,effect of a mutation on the interaction,Variant
1,decreasing interaction strength,MAGKSSLFKIILLGDGGVGKSSLMNRYVTNKFDSQLFHTIGVEFLNKDLEVDGHFVTMQIWDTAGQERFRSARTPFYRGSDCCLLTFSVDDSQSFQNLSNWKKEFIYYADVKEPESFPFVILGNKTDIKERQVSTEEAQAWCKDNGDYPYFETSAKDSTNVAAAFEEAVRRILATEDRSEHLIQTDTVNLHRKPKPNSSCC [L72A]
2,decreasing interaction strength,MAGKSSLFKIILLGDGGVGKSSLMNRYVTNKFDSQLFHTIAVEFLNKDLEVDGHFVTMQIWDTAGQERFRSLRTPFYRGSDCCLLTFSVDDSQSFQNLSNWKKEFIYYADVKEPESFPFVILGNKTDIKERQVSTEEAQAWCKDNGDYPYFETSAKDSTNVAAAFEEAVRRILATEDRSEHLIQTDTVNLHRKPKPNSSCC [G41A]
3,decreasing interaction strength,MAGKSSLFKIILLGDGGVGKSSLMNRYVTNKFDSQLFHTIDVEFLNKDLEVDGHFVTMQIWDTAGQERFRSLRTPFYRGSDCCLLTFSVDDSQSFQNLSNWKKEFIYYADVKEPESFPFVILGNKTDIKERQVSTEEAQAWCKDNGDYPYFETSAKDSTNVAAAFEEAVRRILATEDRSEHLIQTDTVNLHRKPKPNSSCC [G41D]
4,decreasing interaction strength,MAGKSSLFKIILLGDGGVGKSSLMNRYVTNKFDSQLFHTIGVEFLNKDLEVDGHFVTMQIWDTAGQERARSLRTPFYRGSDCCLLTFSVDDSQSFQNLSNWKKEFIYYADVKEPESFPFVILGNKTDIKERQVSTEEAQAWCKDNGDYPYFETSAKDSTNVAAAFEEAVRRILATEDRSEHLIQTDTVNLHRKPKPNSSCC [F69A]
